Measurements reported in patent publication US20100310640A1 (published 2010).

Columns and labels:
HLA-DR DRB3*0101 = HLA-DR DRB3*0101 (human); experiment: radioligand inhibition, purified HLA-DR
HLA-DR DRB1*1501 [1] = target: HLA-DR DRB1*1501 (human); experiment: radioligand inhibition, purified HLA-DR
HLA-DR DRB1*0301 [2] = target: HLA-DR DRB1*0301 (human); experiment: radioligand inhibition, purified HLA-DR
HLA-DR DRB1*1501 [3] = target: HLA-DR DRB1*1501 (human); experiment: radioligand inhibition, purified HLA-DR; remark: listed apart in the source
HLA-DR DRB1*1501 [4] = target: HLA-DR DRB1*1501 (human); experiment: radiolabeled-peptide inhibition, purified HLA-DR
HLA-DR DRB1*1501 [5] = target: HLA-DR DRB1*1501 (human); experiment: radioligand inhibition, purified HLA-DR; remark: listed apart in the source
HLA-DR DRB1*0101 [6] = target: HLA-DR DRB1*0101 (human); experiment: radioligand inhibition, purified HLA-DR
HLA-DR DRB1*0401 [7] = target: HLA-DR DRB1*0401 (human); experiment: radioligand inhibition, purified HLA-DR
HLA-DR DRB1*0701 [8] = target: HLA-DR DRB1*0701 (human); experiment: radioligand inhibition, purified HLA-DR
HLA-DR DRB1*0401 [9] = target: HLA-DR DRB1*0401 (human); experiment: radioligand inhibition, purified HLA-DR; remark: listed apart in the source
HLA-DR DRB1*0701 [10] = target: HLA-DR DRB1*0701 (human); experiment: radioligand inhibition, purified HLA-DR; remark: listed apart in the source
HLA-DR DRB1*1302 [11] = target: HLA-DR DRB1*1302 (human); experiment: radioligand inhibition, purified HLA-DR
HLA-DR DRB1*0701 [12] = target: HLA-DR DRB1*0701 (human); experiment: radiolabeled-peptide inhibition, purified HLA-DR
HLA-DR DRB1*0101 [13] = target: HLA-DR DRB1*0101 (human); experiment: radiolabeled-peptide inhibition, purified HLA-DR
HLA-DR DRB1*0401 [14] = target: HLA-DR DRB1*0401 (human); experiment: radiolabeled-peptide inhibition, purified HLA-DR
HLA-DR DRB1*0301 [15] = target: HLA-DR DRB1*0301 (human); experiment: radioligand inhibition, purified HLA-DR; remark: listed apart in the source
HLA-DR DRB1*1302 [16] = target: HLA-DR DRB1*1302 (human); experiment: radioligand inhibition, purified HLA-DR; remark: listed apart in the source
HLA-DR DRB1*0101 [17] = target: HLA-DR DRB1*0101 (human); experiment: radioligand inhibition, purified HLA-DR; remark: listed apart in the source

B1: Peptide 9019.0096 (peptide)
peptide: FRELVSEFSRMARDP
B1 gave an IC50 (HLA-DR DRB3*0101) of 4.54 µM.

B2: CEA.603 peptide 9012.0137 (peptide)
peptide: SSYLSGANLNLSCHS
B2 was tested, and the IC50 (HLA-DR DRB1*1501 [1]) was 13 µM.

B3: Cyclin D1.135 (peptide)
peptide: EELLQMELLLVNKLK
B3 showed an IC50 (HLA-DR DRB1*0301 [2]) of 3.39 µM.

B4: Peptide 9019.0022 (peptide)
peptide: APTIRGDPECHLFYN
Binder B4 has an IC50 (HLA-DR DRB1*1501 [3]) of 3.67 µM.

B5: 9019.0064 (peptide)
peptide: LQGLPREYVNARHCL
B5 was tested, and the IC50 (HLA-DR DRB1*1501 [4]) was 0.423 µM.

B6: Cyclin D1.56 (peptide)
peptide: MRKIVATWMLEVCEE
B6 was tested, and the IC50 (HLA-DR DRB1*1501 [5]) was 0.087 µM.

B7: Peptide 9019.0179 (peptide)
peptide: PERLAACGPPPVAPP
Binder B7 has an IC50 (HLA-DR DRB1*1501 [3]) of 4.05 µM.

B8: Cyclin D1.150 (peptide)
peptide: WNLAAMTPHDFIEHF
For B8, the IC50 (HLA-DR DRB1*0101 [6]) was 6.42 µM.

B9: CEA.671 peptide 9919.0143 (peptide)
peptide: SITVSASGTSPGLSA
Work on B9 yielded an IC50 (HLA-DR DRB1*1501 [1]) of 3.11 µM.

B10: Peptide 1622.04 (peptide)
peptide: ICTIDVYMIMVKCWM
With B10 the IC50 (HLA-DR DRB1*1501 [3]) was 2.65 µM.

B11: Cyclin D1.123 (peptide)
peptide: KLCIYTDNSIRPEEL
Binder B11 has an IC50 (HLA-DR DRB1*1501 [5]) of 0.025 µM.

B12: Peptide 9019.0183 (peptide)
peptide: SEGGLVENHVDSTMN
Work on B12 yielded an IC50 (HLA-DR DRB1*0401 [7]) of 1.2 µM and an IC50 (HLA-DR DRB1*0701 [8]) of 4.62 µM.

B13: CEA.688 peptide 9019.05 (peptide)
peptide: TVGIMIGVLVGVALI
Binder B13 has an IC50 (HLA-DR DRB1*1501 [1]) of 7.77 µM.

B14: 9019.0068 (peptide)
peptide: ILLVVVLGVVFGILI
In the case of B14, the IC50 (HLA-DR DRB1*1501 [4]) is reported as 7.12 µM.

B15: CEA.624 peptide 9019.0138 (peptide)
peptide: QYSWRINGIPQQHTQ
For B15, the IC50 (HLA-DR DRB1*1501 [1]) was 2.07 µM.

B16: Her2/neu.120 (peptide)
peptide: GDPLNNTTPVTGASP
B16 showed an IC50 (HLA-DR DRB1*0401 [9]) of 7.46 µM, an IC50 (HLA-DR DRB1*0101 [6]) of 6.36 µM and an IC50 (HLA-DR DRB1*0701 [10]) of 13.2 µM. It also gave an IC50 (HLA-DR DRB1*1302 [11]) of 1.03 µM.

B17: 9019.0061 (peptide)
peptide: GHCWGPGPTQCVNCS
With B17 the IC50 (HLA-DR DRB1*0701 [12]) was 6.74 µM, the IC50 (HLA-DR DRB1*0101 [13]) was 1.91 µM and the IC50 (HLA-DR DRB1*0401 [14]) was 3.74 µM.

B18: Peptide 9019.0099 (peptide)
peptide: LQRYSEDPTVPLPSE
With B18 the IC50 (HLA-DR DRB1*1501 [3]) was 5.31 µM.

B19: Cyclin D1.252 (peptide)
peptide: EALLESSLRQAQQNM
With B19 the IC50 (HLA-DR DRB1*1501 [5]) was 8.18 µM.

B20: Her2/neu.126 (peptide)
peptide: TTPVTGASPGGLREL
In the case of B20, the IC50 (HLA-DR DRB1*1501 [5]) is reported as 17.1 µM.

B21: Cyclin D1.129 (peptide)
peptide: DNSIRPEELLQMELL
B21 showed an IC50 (HLA-DR DRB1*1501 [5]) of 4.76 µM.

B22: 9019.0002 (peptide)
peptide: GMSYLEDVRLVHRDL
B22 gave an IC50 (HLA-DR DRB1*1501 [4]) of 0.567 µM.

B23: Peptide 9019.0015 (peptide)
peptide: CAELVREPGCGCCSV
Work on B23 yielded an IC50 (HLA-DR DRB1*0301 [15]) of 12.3 µM.

B24: 9019.0067 (peptide)
peptide: ISAVVGILLVVVLGV
B24 was tested, and the IC50 (HLA-DR DRB1*1501 [4]) was 6 µM.

B25: 9019.0089 (peptide)
peptide: SDVWSYGVTVWELMT
Work on B25 yielded an IC50 (HLA-DR DRB1*1501 [4]) of 1.88 µM.

B26: 9019.0050 (peptide)
peptide: ITGYLYISAWPDSLP
With B26 the IC50 (HLA-DR DRB1*1501 [4]) was 0.152 µM.

B27: 9019.0044 (peptide)
peptide: CYGLGMEHLREVRAV
B27 gave an IC50 (HLA-DR DRB1*1501 [4]) of 0.69 µM.

B28: 9019.0065 (peptide)
peptide: PSGVKPDLSYMPIWK
In the case of B28, the IC50 (HLA-DR DRB1*0101 [13]) is reported as 1.03 µM.

B29: CEA.123 peptide 9019.0119 (position 226) (peptide)
peptide: SDSVILNVLYGPDAP
B29 gave an IC50 (HLA-DR DRB1*1501 [1]) of 0.351 µM.

B30: 9019.0048 (peptide)
peptide: PESFDGDPASNTAPL
B30 was tested, and the IC50 (HLA-DR DRB1*1501 [4]) was 0.805 µM.

B31: Peptide 9019.0182 (peptide)
peptide: ELPLQALVMGEGTCE
Binder B31 has an IC50 (HLA-DR DRB1*0401 [7]) of 6.78 µM, an IC50 (HLA-DR DRB1*1302 [16]) of 9.17 µM and an IC50 (HLA-DR DRB1*0701 [8]) of 15.6 µM. For the same binder, the IC50 (HLA-DR DRB1*0101 [17]) was 1.5 µM.

B32: 1622.03 (peptide)
peptide: KIPVAIKVLRENTSP
For B32, the IC50 (HLA-DR DRB1*1501 [4]) was 0.611 µM.

B33: CEA.570 peptide 9012.0135 (peptide)
peptide: VCGIQNSVSANRSDP
Work on B33 yielded an IC50 (HLA-DR DRB1*1501 [1]) of 8.98 µM.

B34: CEA.629 peptide 9019.0139 (peptide)
peptide: INGIPQQHTQVLFIA
B34 was tested, and the IC50 (HLA-DR DRB1*1501 [1]) was 8.29 µM.

B35: Peptide 9019.0102 (peptide)
peptide: GATLERPKTLSPGKN
B35 gave an IC50 (HLA-DR DRB1*0401 [7]) of 2.79 µM, an IC50 (HLA-DR DRB1*1302 [16]) of 5.33 µM and an IC50 (HLA-DR DRB1*0101 [17]) of 1.81 µM.

B36: Her2/neu.263 (peptide)
peptide: ICELHCPALVTYNTD
In the case of B36, the IC50 (HLA-DR DRB1*1501 [5]) is reported as 0.748 µM.

B37: Peptide 9019.0095 (peptide)
peptide: RPRFRELVSEFSRMA
For B37, the IC50 (HLA-DR DRB1*1501 [3]) was 0.348 µM.

B38: Peptide 9919.0173 (peptide)
peptide: LPRVGCPALPLPPPP
In the case of B38, the IC50 (HLA-DR DRB1*0401 [7]) is reported as 6.54 µM, the IC50 (HLA-DR DRB1*1302 [16]) is reported as 8.94 µM and the IC50 (HLA-DR DRB1*0101 [17]) is reported as 1.91 µM.

B39: CEA.680 peptide 9019.0144 (peptide)
peptide: SPGLSAGATVGIMIG
For B39, the IC50 (HLA-DR DRB1*1501 [1]) was 3.93 µM.

B40: CEA.10 peptide 9019.0104 (peptide)
peptide: RWCIPWQRLLLTASL
B40 showed an IC50 (HLA-DR DRB1*1501 [1]) of 0.061 µM.
